This test can be described thus: UDP luminescence plate assay of E. coli extracts, mutants of SEQ ID No: 1, 2 mM metribuzin. In kind it is biochemical, Zea mays. On the procedure:
Optionally plate assays are stopped with brief heating to 95 C before returning to ice and addition of UDP-Glo detection reagent followed by incubation at lab temperature. […] In addition a UDP standard curve is run alongside each set of plate tests.
Assays were carried out on extracts of E. coli BL21 DE3 expressing the various C-terminally his-tagged library variants of SEQ ID NO:1 at the amino acid positions listed in Table 11 as described in Example 2 except, in this case, with 2 mM metribuzin in place of herbicide V.
Thus the ratio of the metribuzin to DMSO signal as well as the increase in signal relative to the w/t bx9 is used to help distinguish those mutations most likely to offer the highest activity to metribuzin. A follow up assay monitored by, for example, LC MS is one method to distinguish these cases more quantitatively.

B1: bx9 w/t: wild type Zea mays bx9 glucosyl transferase, C-terminally his-tagged SEQ ID NO: 1 (protein)
chain: MASSRTGAGAGGRVVVFPFPFQGHFNPVMRLARALHARGLAITVFHSGALDPADYPADYRFVPVTVEADPKLLASEDIAAIVTTLNASCDAPFRARLSALLAAEGRDSVRCVFTDVSWNAVLTASSDLGVPALGMMTASAASLRDYMAYRTLIDKGYLPVKEERKEDPVPELPPYLVKDLLRVDTSDLEEFAELLARTVTAARRASGLIFNTFPLIETDTLAEIHKALSVPVFAVAPLNKLVPTATASLHGVVQADRGCLQWLDTQQPGSVLYVSFGSMAAMDPHEFVELAWGLADSKRPFVWVVRPNLIRGFESGALPDGVEDEVRGRGIVVAWAPQEEVLAHPAVGGFLTHNGWNSTVEAISEGVPMVCCPRHGDQFGNMRYVCDVWKVGTELVGEQLERGQVKAAIDRLFGTKEGEEIKERMKEFKIAAAKGIGIGVDVDETASPRTDLTDLVDLIKSF
modifications: C-terminal His tag; Zea mays
B1: where the note is “2 mM metribuzin”, the “SIGNAL: metribuzin signal of mutant divided by metribuzin signal of w/t bx9” value is 1.00. Further, the UDP-Glo luminescence signal (2 mM metribuzin, 5 ul diluted extract, 40 minutes, DMSO control ~2.3E6, H24A ~1.7E6) is ~3.4 E6. Moreover, the “luminescence signal with metribuzin” value (2 mM metribuzin, H24A null background 1.00E+05 not subtracted) is on record as 1.23E+05. The “SIGNAL: metribuzin signal of mutant divided by the signal of w/t bx9” value (2 mM metribuzin, relative to bx9 w/t) was 1.00. In addition, the “luminescence signal in the DMSO control” value (mutants of SEQ ID No: 1, DMSO in place of metribuzin (background UDP-glucose hydrolysis)) came to 2.76E+05. Further, the “luminescence signal observed with 2 mM metribuzin” value (mutants of SEQ ID No: 1 in E. coli extracts, 2 mM metribuzin, UDP luminescence) came out at 2.80E+05.

B2: M279F, H375Y: mutant combination of bx9 SEQ ID NO:1 (protein)
chain: MASSRTGAGAGGRVVVFPFPFQGHFNPVMRLARALHARGLAITVFHSGALDPADYPADYRFVPVTVEADPKLLASEDIAAIVTTLNASCDAPFRARLSALLAAEGRDSVRCVFTDVSWNAVLTASSDLGVPALGMMTASAASLRDYMAYRTLIDKGYLPVKEERKEDPVPELPPYLVKDLLRVDTSDLEEFAELLARTVTAARRASGLIFNTFPLIETDTLAEIHKALSVPVFAVAPLNKLVPTATASLHGVVQADRGCLQWLDTQQPGSVLYVSFGSFAAMDPHEFVELAWGLADSKRPFVWVVRPNLIRGFESGALPDGVEDEVRGRGIVVAWAPQEEVLAHPAVGGFLTHNGWNSTVEAISEGVPMVCCPRYGDQFGNMRYVCDVWKVGTELVGEQLERGQVKAAIDRLFGTKEGEEIKERMKEFKIAAAKGIGIGVDVDETASPRTDLTDLVDLIKSF
modifications: Zea mays
Regarding B2, where the note is “2 mM metribuzin”, the “factor of increased signal relative to the bx9 w/t control signal (first parentheses)” value is 5.0 and the “ratio of activity with metribuzin relative to activity with DMSO (second parentheses)” value turned out to be 6.0.

B3: M279W, H375Y: mutant combination of bx9 SEQ ID NO:1 (protein)
chain: MASSRTGAGAGGRVVVFPFPFQGHFNPVMRLARALHARGLAITVFHSGALDPADYPADYRFVPVTVEADPKLLASEDIAAIVTTLNASCDAPFRARLSALLAAEGRDSVRCVFTDVSWNAVLTASSDLGVPALGMMTASAASLRDYMAYRTLIDKGYLPVKEERKEDPVPELPPYLVKDLLRVDTSDLEEFAELLARTVTAARRASGLIFNTFPLIETDTLAEIHKALSVPVFAVAPLNKLVPTATASLHGVVQADRGCLQWLDTQQPGSVLYVSFGSWAAMDPHEFVELAWGLADSKRPFVWVVRPNLIRGFESGALPDGVEDEVRGRGIVVAWAPQEEVLAHPAVGGFLTHNGWNSTVEAISEGVPMVCCPRYGDQFGNMRYVCDVWKVGTELVGEQLERGQVKAAIDRLFGTKEGEEIKERMKEFKIAAAKGIGIGVDVDETASPRTDLTDLVDLIKSF
modifications: Zea mays
Consider B3, for which, for the setting “2 mM metribuzin”, the “factor of increased signal relative to the bx9 w/t control signal (first parentheses)” value was determined as 4.0 and the “ratio of activity with metribuzin relative to activity with DMSO (second parentheses)” value stood at 5.0.

B4: M279F, H375F: mutant combination of bx9 SEQ ID NO:1 (protein)
chain: MASSRTGAGAGGRVVVFPFPFQGHFNPVMRLARALHARGLAITVFHSGALDPADYPADYRFVPVTVEADPKLLASEDIAAIVTTLNASCDAPFRARLSALLAAEGRDSVRCVFTDVSWNAVLTASSDLGVPALGMMTASAASLRDYMAYRTLIDKGYLPVKEERKEDPVPELPPYLVKDLLRVDTSDLEEFAELLARTVTAARRASGLIFNTFPLIETDTLAEIHKALSVPVFAVAPLNKLVPTATASLHGVVQADRGCLQWLDTQQPGSVLYVSFGSFAAMDPHEFVELAWGLADSKRPFVWVVRPNLIRGFESGALPDGVEDEVRGRGIVVAWAPQEEVLAHPAVGGFLTHNGWNSTVEAISEGVPMVCCPRFGDQFGNMRYVCDVWKVGTELVGEQLERGQVKAAIDRLFGTKEGEEIKERMKEFKIAAAKGIGIGVDVDETASPRTDLTDLVDLIKSF
modifications: Zea mays
Regarding B4, for the setting “2 mM metribuzin”, the “factor of increased signal relative to the bx9 w/t control signal (first parentheses)” value is 5.0 and the “ratio of activity with metribuzin relative to activity with DMSO (second parentheses)” value worked out at 4.0.

B5: M279F, E339A, H375Y: mutant combination of bx9 SEQ ID NO:1 (protein)
chain: MASSRTGAGAGGRVVVFPFPFQGHFNPVMRLARALHARGLAITVFHSGALDPADYPADYRFVPVTVEADPKLLASEDIAAIVTTLNASCDAPFRARLSALLAAEGRDSVRCVFTDVSWNAVLTASSDLGVPALGMMTASAASLRDYMAYRTLIDKGYLPVKEERKEDPVPELPPYLVKDLLRVDTSDLEEFAELLARTVTAARRASGLIFNTFPLIETDTLAEIHKALSVPVFAVAPLNKLVPTATASLHGVVQADRGCLQWLDTQQPGSVLYVSFGSFAAMDPHEFVELAWGLADSKRPFVWVVRPNLIRGFESGALPDGVEDEVRGRGIVVAWAPQAEVLAHPAVGGFLTHNGWNSTVEAISEGVPMVCCPRYGDQFGNMRYVCDVWKVGTELVGEQLERGQVKAAIDRLFGTKEGEEIKERMKEFKIAAAKGIGIGVDVDETASPRTDLTDLVDLIKSF
modifications: Zea mays
As for B5, for the setting “2 mM metribuzin”, the “factor of increased signal relative to the bx9 w/t control signal (first parentheses)” value is reported as 7.5 and the “ratio of activity with metribuzin relative to activity with DMSO (second parentheses)” value worked out at 7.0.

B6: A432L: bx9 SEQ ID NO:1 mutant (protein)
chain: MASSRTGAGAGGRVVVFPFPFQGHFNPVMRLARALHARGLAITVFHSGALDPADYPADYRFVPVTVEADPKLLASEDIAAIVTTLNASCDAPFRARLSALLAAEGRDSVRCVFTDVSWNAVLTASSDLGVPALGMMTASAASLRDYMAYRTLIDKGYLPVKEERKEDPVPELPPYLVKDLLRVDTSDLEEFAELLARTVTAARRASGLIFNTFPLIETDTLAEIHKALSVPVFAVAPLNKLVPTATASLHGVVQADRGCLQWLDTQQPGSVLYVSFGSMAAMDPHEFVELAWGLADSKRPFVWVVRPNLIRGFESGALPDGVEDEVRGRGIVVAWAPQEEVLAHPAVGGFLTHNGWNSTVEAISEGVPMVCCPRHGDQFGNMRYVCDVWKVGTELVGEQLERGQVKAAIDRLFGTKEGEEIKERMKEFKIALAKGIGIGVDVDETASPRTDLTDLVDLIKSF
modifications: Zea mays
For B6, where the note is “2 mM metribuzin”, the “factor of increased signal relative to the bx9 w/t control signal (first parentheses)” value is given as 6 and the “ratio of activity with metribuzin relative to activity with DMSO (second parentheses)” value was determined as 1.30.

B7: S117G, M279W, E339A: mutant combination of bx9 SEQ ID NO:1 (protein)
chain: MASSRTGAGAGGRVVVFPFPFQGHFNPVMRLARALHARGLAITVFHSGALDPADYPADYRFVPVTVEADPKLLASEDIAAIVTTLNASCDAPFRARLSALLAAEGRDSVRCVFTDVGWNAVLTASSDLGVPALGMMTASAASLRDYMAYRTLIDKGYLPVKEERKEDPVPELPPYLVKDLLRVDTSDLEEFAELLARTVTAARRASGLIFNTFPLIETDTLAEIHKALSVPVFAVAPLNKLVPTATASLHGVVQADRGCLQWLDTQQPGSVLYVSFGSWAAMDPHEFVELAWGLADSKRPFVWVVRPNLIRGFESGALPDGVEDEVRGRGIVVAWAPQAEVLAHPAVGGFLTHNGWNSTVEAISEGVPMVCCPRHGDQFGNMRYVCDVWKVGTELVGEQLERGQVKAAIDRLFGTKEGEEIKERMKEFKIAAAKGIGIGVDVDETASPRTDLTDLVDLIKSF
modifications: Zea mays
With B7, where the note is “2 mM metribuzin”, the “factor of increased signal relative to the bx9 w/t control signal (first parentheses)” value was 5.0 and the “ratio of activity with metribuzin relative to activity with DMSO (second parentheses)” value was 6.5.

B8: S117G, M279W, E339V: mutant combination of bx9 SEQ ID NO:1 (protein)
chain: MASSRTGAGAGGRVVVFPFPFQGHFNPVMRLARALHARGLAITVFHSGALDPADYPADYRFVPVTVEADPKLLASEDIAAIVTTLNASCDAPFRARLSALLAAEGRDSVRCVFTDVGWNAVLTASSDLGVPALGMMTASAASLRDYMAYRTLIDKGYLPVKEERKEDPVPELPPYLVKDLLRVDTSDLEEFAELLARTVTAARRASGLIFNTFPLIETDTLAEIHKALSVPVFAVAPLNKLVPTATASLHGVVQADRGCLQWLDTQQPGSVLYVSFGSWAAMDPHEFVELAWGLADSKRPFVWVVRPNLIRGFESGALPDGVEDEVRGRGIVVAWAPQVEVLAHPAVGGFLTHNGWNSTVEAISEGVPMVCCPRHGDQFGNMRYVCDVWKVGTELVGEQLERGQVKAAIDRLFGTKEGEEIKERMKEFKIAAAKGIGIGVDVDETASPRTDLTDLVDLIKSF
modifications: Zea mays
B8: for the setting “2 mM metribuzin”, the “factor of increased signal relative to the bx9 w/t control signal (first parentheses)” value was 7.5 and the “ratio of activity with metribuzin relative to activity with DMSO (second parentheses)” value was 5.0.

The values above are taken from US20200270588A1, “GLUCOSYL TRANSFERASE POLYPEPTIDES AND METHODS OF USE” (Syngenta Participations AG, priority 2017, published 2020).
